How the values were obtained:
Conditions in all cases: both partners purified
[1] = molecular target: T1, soluble human BAFF (aa 134-285) N242A (human, UniProt Q9Y275 134-285, N242A); test: SPR; about 1000 RU of belimumab Fab immobilised on a CM-5 chip by amine coupling; BAFF wild type or mutant flowed at 2 to 250 nM; 20 mM sodium citrate pH 5.6, 200 mM NaCl; 25 °C; BIAcore T100; sensorgrams locally fitted; in duplicate
T1 construct: also called BAFF N242A; source: E. coli BL21 (DE3), purified as described for wild-type BAFF; not shown: His6, N-terminal, cleaved

[2] = molecular target: T2, soluble human BAFF (aa 134-285) E266A (human, UniProt Q9Y275 134-285, E266A); test: as above
T2 construct: also called BAFF E266A; source: E. coli BL21 (DE3), purified as described for wild-type BAFF; not shown: His6, N-terminal, cleaved

[3] = molecular target: T3, soluble human BAFF (aa 134-285) R265A (human, UniProt Q9Y275 134-285, R265A); test: as above
T3 construct: also called BAFF R265A; source: E. coli BL21 (DE3), purified as described for wild-type BAFF; not shown: His6, N-terminal, cleaved

[4] = molecular target: T4, soluble human BAFF (aa 134-285) L224A (human, UniProt Q9Y275 134-285, L224A); test: as above
T4 construct: also called BAFF L224A; source: E. coli BL21 (DE3), purified as described for wild-type BAFF; not shown: His6, N-terminal, cleaved

[5] = molecular target: T5, soluble human BAFF (aa 134-285) Y206A (human, UniProt Q9Y275 134-285, Y206A); test: as above
T5 construct: also called BAFF Y206A; source: E. coli BL21 (DE3), purified as described for wild-type BAFF; not shown: His6, N-terminal, cleaved

[6] = molecular target: T6, soluble human BAFF (aa 134-285) L240A (human, UniProt Q9Y275 134-285, L240A); test: as above
T6 construct: also called BAFF L240A; source: E. coli BL21 (DE3), purified as described for wild-type BAFF; not shown: His6, N-terminal, cleaved

[7] = molecular target: T7, soluble human BAFF (aa 134-285) I233A (human, UniProt Q9Y275 134-285, I233A); test: as above
T7 construct: also called BAFF I233A; source: E. coli BL21 (DE3), purified as described for wild-type BAFF; not shown: His6, N-terminal, cleaved

[8] = molecular target: T8, soluble human BAFF (aa 134-285) D222A (human, UniProt Q9Y275 134-285, D222A); test: as above
T8 construct: also called BAFF D222A; source: E. coli BL21 (DE3), purified as described for wild-type BAFF; not shown: His6, N-terminal, cleaved

[9] = molecular target: T9, soluble human BAFF (aa 134-285) Y163A (human, UniProt Q9Y275 134-285, Y163A); test: as above
T9 construct: also called BAFF Y163A; source: E. coli BL21 (DE3), purified as described for wild-type BAFF; not shown: His6, N-terminal, cleaved

[10] = molecular target: T10, soluble human BAFF (aa 134-285) R231A (human, UniProt Q9Y275 134-285, R231A); test: as above
T10 construct: also called BAFF R231A; source: E. coli BL21 (DE3), purified as described for wild-type BAFF; not shown: His6, N-terminal, cleaved

[11] = molecular target: T11, soluble form of human BAFF (aa 134–285) (human, UniProt Q9Y275); test: SEC; analytical gel filtration, Superdex 200 Increase 10/300 GL, 20 mM HEPES pH 7.0, 200 mM NaCl; BAFF alone, Fab alone, and BAFF incubated 1 h with an excess of Fab
T11 construct: Cloned in pET-28a; On gel filtration it runs as trimer and as 60-mer (20 trimers); the trimer fractions were collected; also called BLyS; source: E. coli BL21 (DE3), purified (HisTrap, thrombin cleavage, gel filtration; trimer fractions collected); not shown: His6, N-terminal, cleaved

B1: belimumab Fab (Fab, V domains shown)
VH: QVQLQQSGAEVKKPGSSVRVSCKASGGTFNNNAINWVRQAPGQGLEWMGGIIPMFGTAKYSQNFQGRVAITADESTGTASMELSSLRSEDTAVYYCARSRDLLLFPHHALSPWGRGTMVTVSS
VL: SSELTQDPAVSVALGQTVRVTCQGDSLRSYYASWYQQKPGQAPVLVIYGKNNRPSGIPDRFSGSSSGNTASLTITGAQAEDEADYYCSSRDSSGNHWVFGGGTELTVLG
notes: followed by HHHHHH (the tag); Fab of a fully human IgG1 lambda antibody; also called belimumab Fab fragment; Benlysta Fab; source: E. coli Top10F, periplasmic expression, purified (HisTrap, gel filtration)
Kd [1]: 1.22 nM | koff [1]: 0.000167 s⁻¹ | kon [1]: 137000 M⁻¹ s⁻¹ | Kd [2]: 2.34 nM | koff [2]: 0.000245 s⁻¹ | kon [2]: 105000 M⁻¹ s⁻¹ | Kd [3]: 3.79 nM | koff [3]: 5.59e-05 s⁻¹ | kon [3]: 14800 M⁻¹ s⁻¹ | Kd [4]: 7.77 nM | koff [4]: 0.00119 s⁻¹ | kon [4]: 153000 M⁻¹ s⁻¹ | Kd [5]: 14.1 nM | koff [5]: 0.00783 s⁻¹ | kon [5]: 556000 M⁻¹ s⁻¹ | Kd [6]: 1.45 nM | koff [6]: 0.000145 s⁻¹ | kon [6]: 101000 M⁻¹ s⁻¹ | Kd [7]: 2.64 nM | koff [7]: 0.000328 s⁻¹ | kon [7]: 124000 M⁻¹ s⁻¹ | Kd [8]: 4.34 nM | koff [8]: 0.000357 s⁻¹ | kon [8]: 82200 M⁻¹ s⁻¹ | Kd [9]: 1.45 nM | koff [9]: 0.000137 s⁻¹ | kon [9]: 94400 M⁻¹ s⁻¹ | Kd [10]: 2.85 nM | koff [10]: 0.000128 s⁻¹ | kon [10]: 45000 M⁻¹ s⁻¹

B2: belimumab Fab (Fab, V domains shown)
VH: QVQLQQSGAEVKKPGSSVRVSCKASGGTFNNNAINWVRQAPGQGLEWMGGIIPMFGTAKYSQNFQGRVAITADESTGTASMELSSLRSEDTAVYYCARSRDLLLFPHHALSPWGRGTMVTVSS
VL: SSELTQDPAVSVALGQTVRVTCQGDSLRSYYASWYQQKPGQAPVLVIYGKNNRPSGIPDRFSGSSSGNTASLTITGAQAEDEADYYCSSRDSSGNHWVFGGGTELTVL
notes: heavy chain of the Fab of belimumab (fully human IgG1 lambda); in the deposited structures PDB 5Y9J and 5Y9K; lambda light chain of belimumab; also called Benlysta; belimumab Fab fragment; source: E. coli Top10F, periplasmic expression, purified (HisTrap, gel filtration)
stoichiometry N [11]: 1 BAFF protomer per Fab (printed 3:3)

Reference: article PMC5865148 (Nature Communications, 2018)
